B1: Protein LDOC1 (Homo sapiens), O95751 (parent)
chain: MVDELVLLLHALLMRHRALSIENSQLMEQLRLLVCERASLLRQVRPPSCPVPFPETFNGESSRLPEFIVQTASYMLVNENRFCNDAMKVAFLISLLTGEAEEWVVPYIEMDSPILGDYRAFLDEMKQCFGWDDDEDDDDEEEEDDY
partner: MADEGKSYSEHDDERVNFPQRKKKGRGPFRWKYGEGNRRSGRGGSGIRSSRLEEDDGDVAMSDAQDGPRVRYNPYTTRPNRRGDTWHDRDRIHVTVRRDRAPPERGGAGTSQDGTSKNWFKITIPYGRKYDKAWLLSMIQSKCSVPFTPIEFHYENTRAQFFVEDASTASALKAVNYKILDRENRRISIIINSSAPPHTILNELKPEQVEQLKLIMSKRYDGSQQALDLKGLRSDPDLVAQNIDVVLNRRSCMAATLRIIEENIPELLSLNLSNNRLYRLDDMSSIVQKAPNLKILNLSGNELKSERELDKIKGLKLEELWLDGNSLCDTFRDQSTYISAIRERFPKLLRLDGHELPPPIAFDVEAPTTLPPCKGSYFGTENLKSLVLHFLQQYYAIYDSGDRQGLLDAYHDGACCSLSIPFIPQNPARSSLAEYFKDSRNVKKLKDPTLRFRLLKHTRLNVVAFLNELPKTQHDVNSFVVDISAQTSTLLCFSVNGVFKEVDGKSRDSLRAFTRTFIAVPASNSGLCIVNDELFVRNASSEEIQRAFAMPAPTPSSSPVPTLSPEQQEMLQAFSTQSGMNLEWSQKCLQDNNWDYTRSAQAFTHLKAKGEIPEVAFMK
B2: Ligand of Numb protein X 2 (Homo sapiens), Q8N448 (parent)
chain: MGTTSDEMVSVEQTSSSSLNPLCFECGQQHWTRENHLYNYQNEVDDDLVCHICLQPLLQPLDTPCGHTFCYKCLRNFLQEKDFCPLDRKRLHFKLCKKSSILVHKLLDKLLVLCPFSSVCKDVMQRCDLEAHLKNRCPGASHRRVALERRKTSRTQAEIENENGPTLLDPAGTLSPEADCLGTGAVPVERHLTSASLSTWSEEPGLDNPAFEESAGADTTQQPLSLPEGEITTIEIHRSNPYIQLGISIVGGNETPLINIVIQEVYRDGVIARDGRLLAGDQILQVNNYNISNVSHNYARAVLSQPCNTLHLTVLRERRFGNRAHNHSDSNSPREEIFQVALHKRDSGEQLGIKLVRRTDEPGVFILDLLEGGLAAQDGRLSSNDRVLAINGHDLKYGTPELAAQIIQASGERVNLTIARPGKPQPGNTIREAGNHSSSSQHHTPPPYYSRPSSHKDLTQCVTCQEKHITVKKEPHESLGMTVAGGRGSKSGELPIFVTSVPPHGCLARDGRIKRGDVLLNINGIDLTNLSHSEAVAMLKASAASPAVALKALEVQIVEEATQNAEEQPSTFSENEYDASWSPSWVMWLGLPSTLHSCHDIVLRRSYLGSWGFSIVGGYEENHTNQPFFIKTIVLGTPAYYDGRLKCGDMIVAVNGLSTVGMSHSALVPMLKEQRNKVTLTVICWPGSLV
partner: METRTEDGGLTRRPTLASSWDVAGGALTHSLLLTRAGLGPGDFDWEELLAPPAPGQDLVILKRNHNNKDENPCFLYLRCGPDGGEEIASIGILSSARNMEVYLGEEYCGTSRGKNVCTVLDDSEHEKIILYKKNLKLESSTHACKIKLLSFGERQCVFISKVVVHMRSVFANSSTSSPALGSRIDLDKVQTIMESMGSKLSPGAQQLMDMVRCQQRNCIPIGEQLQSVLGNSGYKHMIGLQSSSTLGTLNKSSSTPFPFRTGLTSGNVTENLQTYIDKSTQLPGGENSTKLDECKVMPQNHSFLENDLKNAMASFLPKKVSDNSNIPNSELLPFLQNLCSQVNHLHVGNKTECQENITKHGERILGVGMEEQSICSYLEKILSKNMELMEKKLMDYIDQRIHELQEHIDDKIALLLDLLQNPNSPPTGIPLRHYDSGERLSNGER
B3: Calcium-binding and coiled-coil domain-containing protein 2 (Homo sapiens), Q13137 (parent)
chain: MEETIKDPPTSAVLLDHCHFSQVIFNSVEKFYIPGGDVTCHYTFTQHFIPRRKDWIGIFRVGWKTTREYYTFMWVTLPIDLNNKSAKQQEVQFKAYYLPKDDEYYQFCYVDEDGVVRGASIPFQFRPENEEDILVVTTQGEVEEIEQHNKELCKENQELKDSCISLQKQNSDMQAELQKKQEELETLQSINKKLELKVKEQKDYWETELLQLKEQNQKMSSENEKMGIRVDQLQAQLSTQEKEMEKLVQGDQDKTEQLEQLKKENDHLFLSLTEQRKDQKKLEQTVEQMKQNETTAMKKQQELMDENFDLSKRLSENEIICNALQRQKERLEGENDLLKRENSRLLSYMGLDFNSLPYQVPTSDEGGARQNPGLAYGNPYSGIQESSSPSPLSIKKCPICKADDICDHTLEQQQMQPLCFNCPICDKIFPATEKQIFEDHVFCHSL
partner: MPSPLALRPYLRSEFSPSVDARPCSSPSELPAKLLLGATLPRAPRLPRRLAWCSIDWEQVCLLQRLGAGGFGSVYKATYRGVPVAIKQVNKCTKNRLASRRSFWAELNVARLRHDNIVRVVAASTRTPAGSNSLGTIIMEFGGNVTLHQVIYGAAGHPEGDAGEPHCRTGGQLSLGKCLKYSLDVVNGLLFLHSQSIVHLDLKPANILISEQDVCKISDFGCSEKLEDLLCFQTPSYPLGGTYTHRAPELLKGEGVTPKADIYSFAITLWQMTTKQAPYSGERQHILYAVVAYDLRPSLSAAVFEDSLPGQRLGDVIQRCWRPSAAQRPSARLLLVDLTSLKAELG
B4: Late cornified envelope protein 1B (Homo sapiens), Q5T7P3 (parent)
chain: MSCQQNQQQCQPPPKCIPKCPPKCLTPRCPPKCPPKCPPVSSCCSVSSGGCCGSSSGGSCGSSSGGCCSSGGGGCCLSHHRRRRSHCHRPQSSGCCSQPSGGSSCCGGGSGQHSGGCC

Variants of: B1
Settings: with nxf1_human NXF1, Q9UBU9

Variant | effect of a mutation on the interaction
L12H | disrupting interaction strength

Variants of: B2
Settings: with paat_human PAAT

Variant | effect of a mutation on the interaction
T183I | with no effect
V145I | with no effect

Variants of: B3
Settings: with mos_human MOS

Variant | effect of a mutation on the interaction
E222K | with no effect

Variants of: B4
Settings: with hxa1_human HOXA1, P49639
Sequence of hxa1_human HOXA1, P49639 (P49639 whole entry): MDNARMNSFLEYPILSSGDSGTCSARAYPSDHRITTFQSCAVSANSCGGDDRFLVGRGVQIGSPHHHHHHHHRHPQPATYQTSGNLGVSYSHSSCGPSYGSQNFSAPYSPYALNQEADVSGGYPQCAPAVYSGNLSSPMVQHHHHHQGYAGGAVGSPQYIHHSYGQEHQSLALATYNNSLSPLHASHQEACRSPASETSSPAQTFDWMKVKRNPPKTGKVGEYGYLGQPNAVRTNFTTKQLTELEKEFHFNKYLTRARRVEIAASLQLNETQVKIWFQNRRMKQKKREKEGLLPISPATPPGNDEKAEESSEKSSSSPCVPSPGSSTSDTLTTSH

Variant | effect of a mutation on the interaction
G108E | with no effect
C51Y | with no effect

Variants of: B4
Settings: with nt2na_human NOTCH2NLA

Variant | effect of a mutation on the interaction
G108E | with no effect
C51Y | with no effect

Variants of: B4
Settings: with kr101_human KRTAP10-1, P60331
Sequence of kr101_human KRTAP10-1, P60331 (P60331 whole entry): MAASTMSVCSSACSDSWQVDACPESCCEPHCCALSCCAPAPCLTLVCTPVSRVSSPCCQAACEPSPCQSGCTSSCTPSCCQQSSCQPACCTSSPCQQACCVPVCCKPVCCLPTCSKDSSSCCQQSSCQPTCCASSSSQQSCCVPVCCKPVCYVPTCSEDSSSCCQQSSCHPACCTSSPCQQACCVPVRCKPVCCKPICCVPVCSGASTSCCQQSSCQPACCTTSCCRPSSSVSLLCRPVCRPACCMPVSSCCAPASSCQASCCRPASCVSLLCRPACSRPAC

Variant | effect of a mutation on the interaction
G108E | with no effect
C51Y | with no effect

Variants of: B4
Settings: with otx1_human OTX1, P32242
Sequence of otx1_human OTX1, P32242 (P32242 whole entry): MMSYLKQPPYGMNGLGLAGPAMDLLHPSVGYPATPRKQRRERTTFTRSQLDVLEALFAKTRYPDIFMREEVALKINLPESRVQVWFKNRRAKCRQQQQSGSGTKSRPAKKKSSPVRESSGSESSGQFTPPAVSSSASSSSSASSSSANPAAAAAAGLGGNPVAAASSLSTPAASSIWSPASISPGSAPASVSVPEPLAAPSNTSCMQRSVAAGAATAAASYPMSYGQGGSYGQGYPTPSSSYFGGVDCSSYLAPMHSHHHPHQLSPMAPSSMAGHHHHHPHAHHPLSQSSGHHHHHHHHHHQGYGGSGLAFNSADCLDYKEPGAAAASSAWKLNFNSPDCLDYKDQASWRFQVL

Variant | effect of a mutation on the interaction
G108E | with no effect
C51Y | with no effect

Variants of: B4
Settings: with rgs20_human RGS20, O76081
Sequence of rgs20_human RGS20, O76081 (O76081 whole entry): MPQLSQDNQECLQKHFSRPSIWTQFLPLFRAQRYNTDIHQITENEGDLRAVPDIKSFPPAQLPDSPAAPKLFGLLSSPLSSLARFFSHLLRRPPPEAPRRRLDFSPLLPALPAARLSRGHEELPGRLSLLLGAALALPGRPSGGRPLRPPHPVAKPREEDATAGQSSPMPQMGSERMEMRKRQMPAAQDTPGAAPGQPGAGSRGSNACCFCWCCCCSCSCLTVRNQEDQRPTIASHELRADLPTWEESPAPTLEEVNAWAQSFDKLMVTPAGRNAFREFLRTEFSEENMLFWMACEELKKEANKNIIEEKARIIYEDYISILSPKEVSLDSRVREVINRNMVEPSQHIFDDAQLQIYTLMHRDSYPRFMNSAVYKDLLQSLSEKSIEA

Variant | effect of a mutation on the interaction
R83H | with no effect

Variants of: B4
Settings: with kra32_human KRTAP3-2, Q9BYR7
Sequence of kra32_human KRTAP3-2, Q9BYR7 (Q9BYR7 whole entry): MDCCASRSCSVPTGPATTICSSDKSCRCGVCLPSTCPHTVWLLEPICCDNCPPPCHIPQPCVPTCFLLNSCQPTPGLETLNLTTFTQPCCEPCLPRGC

Variant | effect of a mutation on the interaction
R83H | with no effect

From IntAct's records for PubMed 31515488
